The values that follow come from FireProtDB (doi:10.1016/j.jmb.2004.09.082).

For the series the following is noted: Escherichia coli (strain K12); pH 7.8; 25 °C; GdnHCl; Chromatography; Tris-HCl 5 mM; KCl 200 mM; reversible: yes; whole UniProt chain shown.

B1: Co-chaperonin GroES wild type, P0A6F9 (protein)
chain: MNIRPLHDRVIVKRKEVETKSAGGIVLTGSAAAKSTRGEVLAVGNGRILENGEVKPLDVKVGDIVIFNDGYGVKSEKIDNEEVLIMSESDILAIVEA
As for B1, the denaturant m value stood at 2.3 kcal/mol/M and the unfolding free energy was 2.3 kcal/mol.
